Source: US20240269276A1 (HARBOUR BIOMED SHANGHAI, published 2024)
Numbering of substitutions follows the chain as printed. In names and notes the source's numbering stands. Where two headings read alike, the source gives them in different places.

B1: PR000960 (antibody, human IgG1, V domains shown)
VH: QVQLVESGGGVVQPGMSLRLSCAASGFNFSNYGMYWVRQAPGKGQEWVAIIWYDGTKKHYADSVKGRFTISRDNSKNTLYLEMNSLRVEDTAVYYCAKNRAIFGVVPDASDIRGQGTMVTVSS
notes: Heavy-chain-only antibody (HCAb): human VH fused to human IgG1 Fc; no light chain; also called anti-PD-L1 HCAb antibody
B2: PR006246 (antibody, human IgG1, V domains shown)
VH: B1 VH with N28D, N31S, I50S, W52R, D54T, K57E, V106I, A109D
notes: The HC entry is used
B3: PR006248 (antibody, human IgG1, V domains shown)
VH: B1 VH with N28D, N31S, I50S, W52R, D54T, K57E, I102L, V106I, A109D
notes: The HC entry is used
B4: PR001065 (antibody, human IgG1, V domains shown)
VH: B1 VH with Q1E, M16R, N31S
notes: as for B1
B5: PR005872 (antibody, human IgG1, V domains shown)
VH: B1 VH with N28T, N31S, I50S, W52R, D54T, K57E, V106I, A109D
notes: The HC entry is used
B6: PR005875 (antibody, human IgG1, V domains shown)
VH: B1 VH with N28T, N31S, I50S, W52R, D54T, K57E, I102L, V106I
notes: The HC entry is used
B7: PR005263 (antibody, human IgG1, V domains shown)
VH: B1 VH with N28T, N31S, I50S, W52R, D54T, K57E
notes: The HC entry is used
B8: PR002079 (antibody, human IgG1, V domains shown)
VH: B1 VH with N28T
notes: HCAb; also called PTM variant of PR000960 (N28T)
B9: PR001061 (antibody, human IgG1, V domains shown)
VH: B1 VH with Q1E, V5L, M16R, N31S, T56S, K57R, V88A, V93M
notes: as for B1
B10: PR001058 (antibody, human IgG1, V domains shown)
VH: B1 VH with Q1E, M16R, N28T, N31S
notes: as for B1
B11: PR005878 (antibody, human IgG1, V domains shown)
VH: B1 VH with N28T, N31S, I50S, W52R, D54T, K57E, I102L, V106I, A109D
notes: The HC entry is used

What was measured:
[1] = target: T1, human PD-L1 on CHO-K1 cells overexpressing human PD-L1 (human, UniProt Q9NZQ7 19-290); test: flow cytometry on CHO-K1 cells overexpressing human PD-L1 (CHO-K1/hPD-L1)
T1 construct: whole, on cells; also called CHO-K1/hPD-L1; CHO-K1-hPD-L1
T1 sequence (Q9NZQ7 19-290): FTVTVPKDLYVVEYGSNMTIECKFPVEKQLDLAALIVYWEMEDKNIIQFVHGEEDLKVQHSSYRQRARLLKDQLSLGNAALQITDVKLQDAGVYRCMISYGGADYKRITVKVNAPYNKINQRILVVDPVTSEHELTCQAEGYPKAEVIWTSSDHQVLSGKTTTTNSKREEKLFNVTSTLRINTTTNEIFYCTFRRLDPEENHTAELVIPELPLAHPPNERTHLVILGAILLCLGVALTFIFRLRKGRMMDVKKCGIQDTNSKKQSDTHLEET
Method: (§1) In the example, in order to study the in vitro binding activity of the PD-L1 antigen-binding protein to human/cynomolgus monkey PD-L1, cell-level binding experiments were performed using CHO-K1 cell strains overexpressing human PD-L1 (CHO-K1/hPD-L1, GenScript, M00543) or CHO-K1 cell strains overexpressing cynomolgus monkey PD-L1 (CHO-K1/cynoPD-L1, GenScript, M00573). Briefly, the PD-L1 cells were digested and resuspended in an F-12K complete medium, and the cell density was adjusted to 1×10⁶ cells/mL. The cells were seeded in a 96-well V-bottom plate (Corning, 3894) at 100 μL/well, followed by the addition of the test antigen-binding proteins serially diluted 5-fold with concentrations that were twice the final concentrations at 100 μL/well. The mixtures were well mixed. The highest final concentration of the antigen-binding proteins was 100 nM. A total of 8 concentrations were set. An isotype antibody hIgG1 iso was used as a control. The cells were incubated away from light at 4° C. for 1 h. Thereafter, the cells in each well were rinsed twice with 100 μL of pre-cooled PBS, and centrifuged at 500 g at 4° C. for 5 min, and then the supernatant was discarded. Then 100 μL of a fluorescent secondary antibody (goat anti-human IgG (H+L) secondary antibody, Alexa Fluor 488 conjugate, Invitrogen, A11013, diluted at the ratio of 1:1000) was added to each well. The plate was incubated away from light at 4° C. for 30 min. The cells in each well were then rinsed twice with 200 μL of pre-cooled PBS and centrifuged at 500 g at 4° C. for 5 min, and then the supernatant was discarded. Finally, a pre-cooled PBS was added at 200 μL/well to resuspend the cells. Fluorescence signal values were read using a BD FACS CANTOII. Fluorescence signal values were read using a flow cytometer BD FACS CANTOII or FACS ACEA, and the data were processed and analyzed using FlowJo v10 (FlowJo, LLC) software. The data were processed and analyzed by plotting using GraphPad Prism 8 software, and binding curves, EC50 values and other parameters were acquired through four-parameter nonlinear fitting.

[2] = target: T1, human PD-L1 on CHO-K1 cells …; test: as above; remark: listed apart in the source
Method: as §1

[3] = target: T2, cynomolgus monkey PD-L1 on CHO-K1 cells overexpressing cynomolgus monkey PD-L1 (cynomolgus monkey, UniProt G7PSE7 19-290); test: flow cytometry on CHO-K1 cells overexpressing cynomolgus monkey PD-L1 (CHO-K1/cynoPD-L1)
T2 construct: also called CHO-K1/cynoPD-L1; GenScript M00573
T2 sequence (G7PSE7 entry or part of it limits assumed): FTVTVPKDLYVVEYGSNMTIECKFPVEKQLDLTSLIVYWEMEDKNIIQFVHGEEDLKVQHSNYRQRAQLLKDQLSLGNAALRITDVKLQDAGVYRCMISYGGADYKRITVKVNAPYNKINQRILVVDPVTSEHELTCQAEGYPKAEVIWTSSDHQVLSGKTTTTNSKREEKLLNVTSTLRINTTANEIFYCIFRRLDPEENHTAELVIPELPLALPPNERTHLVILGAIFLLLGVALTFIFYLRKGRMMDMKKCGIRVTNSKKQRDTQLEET
Method: as §1

[4] = target: T1, human PD-L1 on CHO-K1 cells …; test: flow cytometry on CHO-K1 cells overexpressing human PD-L1 (CHO-K1/hPD-L1) [continued) F]
Method: as §1

[5] = target: T3, human PD-L1 protein with histidine tag (ACROBiosystems #PD-1-H5258) (human, UniProt Q9NZQ7 19-238); test: BLI (Octet Red96e); His-tagged human PD-L1 captured on HIS1K sensor, antibody at 60 nM; 1:1 fit
T3 construct: Bought protein; also called His PD-L1; human PD-L1 proteins; not shown: histidine tag
T3 sequence (Q9NZQ7 19-238 limits assumed): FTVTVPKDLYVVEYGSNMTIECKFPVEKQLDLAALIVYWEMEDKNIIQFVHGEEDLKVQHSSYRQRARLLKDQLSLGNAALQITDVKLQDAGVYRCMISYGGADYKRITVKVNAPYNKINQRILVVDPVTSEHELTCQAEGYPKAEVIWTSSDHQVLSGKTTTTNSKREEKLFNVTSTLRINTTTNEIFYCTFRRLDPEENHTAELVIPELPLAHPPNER
Method: In this example, affinity determination was performed on the affinity-matured mutants of PR002082 using an Octet Red96e instrument. […] The binding kinetics between the antigen and the antibody was analyzed by the biolayer interferometry (BLI) technique using an Octet molecular interaction analyzer (ForteBio, model: Octet Red96e).
When the affinity of the antigen for the antibody was determined, the rotation speed of the sensor was set at 1000 rpm/min. The 2 HIS1K sensors placed in a column were first equilibrated for 10 min in test buffer, then His PD-L1 was captured with the HIS1K sensor at a capture height of 0.9-1.1 nm, then the HIS1K sensor was equilibrated for 2 min in the test buffer, then the HIS1K sensor was bound to the antigen-binding protein (60 nM and 0 nM) for 3 min, and finally the mixture was dissociated for 15 min. The HIS1K sensor was immersed in a 10 mM glycine solution (pH 1.5) for regeneration to elute the proteins bound to the sensor.
When data analysis was performed using Octet Data Analysis software (Fortebio, version 11.0), the reference signals were subtracted by a single reference mode (reference well), the data were fitted by a “1:1 Local/full fitting” method, and the kinetic parameters of the binding of the antigen to the antibody were calculated to obtain Kₒₙ (1/Ms) values, Kdis (1/s) values and KD (M) values.

[6] = target: T2, cynomolgus monkey PD-L1 on CHO-K1 cells …; test: flow cytometry on CHO-K1 cells overexpressing cynomolgus monkey PD-L1 (CHO-K1/cynoPD-L1); remark: listed apart in the source
Method: as §1

[7] = target: T1, human PD-L1 on CHO-K1 cells …; test: flow cytometry on CHO-K1 cells overexpressing human PD-L1 (CHO-K1/hPD-L1) [continued) D]
Method: as §1

[8] = target: T1, human PD-L1 on CHO-K1 cells …; test: flow cytometry on CHO-K1 cells overexpressing human PD-L1 (CHO-K1/hPD-L1) [continued) E]
Method: as §1

Binder | EC50 [1] [nM] | EC50 [3] [nM] | Maximum MFI [3] [MFI] | Kd [5] [nM] | koff [5] [s⁻¹] | kon [5] [M⁻¹ s⁻¹] | EC50 [6] [nM] | Maximum MFI [6] [MFI] | also measured
B1 | 3 | 0.421 | 8440 | – | – | – | – | – | Maximum MFI [1]: 3080 MFI; EC50 [2]: 0.79 nM; Maximum MFI [2]: 23700 MFI
B2 | – | – | – | 0.546 | 0.000164 | 301000 | 0.736 | 11600 | EC50 [4]: 0.764 nM; Maximum MFI [4]: 396000 MFI
B3 | – | – | – | 0.634 | 0.000115 | 182000 | 0.717 | 11500 | EC50 [4]: 0.606 nM; Maximum MFI [4]: 404000 MFI
B4 | 2.67 | 0.7 | 8780 | – | – | – | – | – | Maximum MFI [1]: 3000 MFI
B5 | – | – | – | 0.861 | 0.000187 | 218000 | 0.733 | 11800 | EC50 [7]: 0.787 nM; Maximum MFI [7]: 385000 MFI
B6 | – | – | – | 1.04 | 0.000179 | 172000 | 0.774 | 11500 | EC50 [7]: 0.974 nM; Maximum MFI [7]: 372000 MFI
B7 | – | – | – | 1.94 | 0.000227 | 117000 | 1.19 | 11700 | EC50 [8]: 0.914 nM; Maximum MFI [8]: 363000 MFI
B8 | – | 0.376 | – | – | – | – | – | – | EC50 [2]: 0.83 nM; Maximum MFI [2]: 24600 MFI
B9 | 2.31 | 0.4 | 8840 | – | – | – | – | – | Maximum MFI [1]: 3090 MFI
B10 | 3.33 | 0.4 | 8480 | – | – | – | – | – | –
B11 | – | – | – | 0.671 | 0.000121 | 180000 | 0.894 | 11700 | EC50 [7]: 0.944 nM; Maximum MFI [7]: 379000 MFI; EC50 [4]: 1.08 nM; Maximum MFI [4]: 419000 MFI
